Laboratory results published in paper PMC8442969.
pKd: −log10 of the molar value.

How the values were obtained:
Test in all cases: NMR titration
[1] = molecular target: human mono-ubiquitin, N-terminally 6xHis tagged (made in house, for NMR) (human) (UniProt P0CG48)
[2] = molecular target: human DSS1 (Deletion of Split-hand/Split-foot 1), GST tag removed (human)
[3] = molecular target: human CSNAP (CSN Acidic Protein), GST tag removed (human)

| pKd [1] | KD of site UBS2 (apparent) [2] | KD(app), first of two groups of residues [3] | KD(app), second of two groups of residues [3] | Substance |
| --- | --- | --- | --- | --- |
| 3.37 |  |  |  | human DSS1 (Deletion of Split-hand/Split-foot 1), GST tag removed (natural protein) |
|  | 1800 µM | 800 µM | 2000 µM | human mono-ubiquitin, N-terminally 6xHis tagged (made in house, for NMR) (from UniProt P0CG48 1-76) (natural protein) |
